This note sets out measurements from the RNAGym collection of RNA variant scans (doi:10.7554/elife.90254).

Sequences and labels used below:
B1: LINE1-full (parent)
chain: UACGUAGGUGGUUUUCCCCUGAUAGUGCUAAGGGGGCCUGGAAGUUUGGACUGGGCAGAGCUCAACACAGCGUGGCAAAGUGGCUGUGGCUAGACUGCCUCUCUGGAUUCCUCGUCACUCAGCAGGGCAUCUCUGAGAGAAAUGCC

This data set covers variants of B1. In words: self-cleavage, relative activity (ratio to wild type); higher = more cleavage; in vitro, sequencing; the parent is a self-cleaving ribozyme.
Take U20C A79G: the self-cleavage was 1.5.
Regarding U20C A79U, the self-cleavage turned out to be 1.7.
Take C19U U96A: the self-cleavage amounted to 0.07.
The value for U20A U102C was 1.46.
C19U: the self-cleavage was determined as 1.21.
On to C19G, for which the self-cleavage came to 0.35.
The value for C19A was 0.97.
Next, C17U U62C: 0.04; C17U A22U: 1.21.
On to C18U A30U, for which the self-cleavage worked out at 0.14.
For C17G U102A, the self-cleavage is 1.38.
For the variant U20A U73C, the self-cleavage is 1.42.
Next, U20A U73A: 1.5.
Consider C18U A42C, for which the self-cleavage amounted to 0.74.
As for C16A A142G, the self-cleavage was determined as 0.86.
Turning to U20C G89A, the self-cleavage was 0.09.
Take C17U A69G: the self-cleavage was 0.4.
C16A A138G: the self-cleavage worked out at 1.65.
On to U20A U85C, for which the self-cleavage was 0.09.
On to C18A A22G, for which the self-cleavage was found to be 0.7.
The value for U20A A64G was 0.46; that for U20C G74U was 1.46; that for U20A G34A was 0.88.
Regarding U20A A77C, the self-cleavage came out at 1.75.
Consider U20A A77U, for which the self-cleavage came out at 1.14.
With U20A A77G, the self-cleavage came to 2.25.
C17U A79U: the self-cleavage was 1.1.
The value for U20A A78U was 1.34.
Regarding C16U A124G, the self-cleavage came out at 0.58.
The value for U20C G55A was 0.25; that for C19U C38A was 1.13; that for U20C A107G was 1.6.
As for U20C A107U, the self-cleavage was determined as 1.34.
The value for C17U U39C was 0.92.
For the variant C18A U143C, the self-cleavage was 0.56.
In the case of C17U A138G, the self-cleavage was determined as 1.06.
For the variant C17U A138U, the self-cleavage came to 1.29.
Next, C19A A77G: 2.71.
Regarding U20A G126A, the self-cleavage came out at 1.28.
In the case of C18A U115C, the self-cleavage came out at 1.85.
As for U20C C63U, the self-cleavage came to 0.48.
Regarding C18U A43G, the self-cleavage was 2.02.
Next, C17U A67G: 0.34; U20C A31G: 1.16; U20C A31U: 1.08.
The value for C17U A140U was 1.11; that for U20A G122U was 1.59.
For U20C A43G, the self-cleavage came out at 1.35.
As for U20C A43U, the self-cleavage came out at 1.4.
With C17A A22G, the self-cleavage is 2.19.
Take C19G A42G: the self-cleavage amounted to 1.41.
Next, C19U A124U: 0.76.
Turning to U20A A67G, the self-cleavage was 0.45.
Take U20A A67U: the self-cleavage stood at 0.13.
On to C18A A42G, for which the self-cleavage is 1.45.
The value for C17U A65U was 0.07; that for C17U A65G was 0.18.
As for C18G U115C, the self-cleavage came to 1.67.
In the case of C19U A136G, the self-cleavage came out at 0.95.
On to C19A G72A, for which the self-cleavage was determined as 1.07.
C18U A64U: the self-cleavage turned out to be 0.19.
On to C18U U85G, for which the self-cleavage worked out at 0.23.
With C18U U85A, the self-cleavage is 0.13.
Regarding U20C A117G, the self-cleavage was 1.59.
The value for U20A U62C was 0.06; that for U20C A22U was 1.12.
For the variant U20C A22G, the self-cleavage stood at 1.04.
Turning to U20A U52A, the self-cleavage came to 0.54.
For the variant U20A U52G, the self-cleavage was 1.58.
Turning to U20A U52C, the self-cleavage amounted to 1.77.
Next, C19U U47C: 0.98; C17U A50G: 0.59.
C16G C71G: the self-cleavage is 0.42.
In the case of C18U U45C, the self-cleavage is 0.57.
As to C19A A42G, the self-cleavage is 0.33.
With C18G A65U, the self-cleavage turned out to be 0.28.
Turning to U20A U39C, the self-cleavage came to 0.93.
For the variant C19U G54A, the self-cleavage is 0.57.
U20A A142G: the self-cleavage was determined as 1.08.
With C19U A69G, the self-cleavage was determined as 0.77.
Turning to C18G A124G, the self-cleavage was 1.02.
Consider U20A A136U, for which the self-cleavage was 1.38.
Next, U20C G88A: 0.06; C19U A78C: 1.71; C19U A78U: 1.72.
In the case of U20C A136C, the self-cleavage was 1.74.
The value for U20C A136G was 1.26; that for C16U U20A was 1.02.
In the case of U20A U115C, the self-cleavage amounted to 1.66.
C18A A138G: the self-cleavage was 2.26.
With C18A A138U, the self-cleavage worked out at 1.66.
Take U20A A22U: the self-cleavage is 1.56.
In the case of U20A A22G, the self-cleavage came to 0.69.
The value for U20A A117G was 1.94.
Next, U20A A117C: 1.77.
As to U20A A117U, the self-cleavage was 1.49.
Consider C19U G125U, for which the self-cleavage stood at 1.81.
The value for C16U C38U was 1.06; that for C16U A117G was 0.57; that for C19U C95U was 0.43.
C19U G74A: the self-cleavage stood at 1.12.
For U20A G72A, the self-cleavage was 1.31.
As to C19U C51U, the self-cleavage stood at 1.01.
As for C18A U132A, the self-cleavage came to 1.38.
For U20A G36C, the self-cleavage was 0.93.
Consider U20A G36A, for which the self-cleavage worked out at 0.94.
For U20C A129U, the self-cleavage worked out at 1.3.
Turning to U20C A129G, the self-cleavage stood at 2.29.
On to C18U U108C, for which the self-cleavage turned out to be 0.
In the case of C17U U143A, the self-cleavage came to 0.85.
In the case of C17U U143C, the self-cleavage amounted to 1.03.
In the case of C19G G126A, the self-cleavage came out at 0.49.
Next, C19U A121U: 1.03; C19U A121G: 0.42.
On to C19G U52A, for which the self-cleavage was 1.16.
Next, C16U A92U: 0.58; C16U A92G: 0.2; C17A A67G: 0.56.
Take U20C C110U: the self-cleavage worked out at 1.4.
Next, C19U U73A: 1.15.
Next, C19U U73C: 0.85; C19U U102A: 1.19.
Take C16U A67G: the self-cleavage came to 0.45.
Consider C18A, for which the self-cleavage was 1.39.
C18U: the self-cleavage was 1.17.
With C18G, the self-cleavage came to 1.36.
On to U20C G21A, for which the self-cleavage worked out at 1.12.
With C19U G114A, the self-cleavage stood at 1.28.
With C19U U130C, the self-cleavage is 1.08.
Next, C16A U104A: 0.47; C19U A22G: 1.18.
For the variant C16A A67G, the self-cleavage was determined as 1.02.
Consider C16A A136G, for which the self-cleavage was 0.57.
Regarding C18A U81C, the self-cleavage is 1.31.
With C17G A141G, the self-cleavage is 0.47.
Turning to C18U U96A, the self-cleavage was 0.08.
On to C18A U45A, for which the self-cleavage amounted to 1.06.
The value for C19A G32A was 0.91; that for C19U U62A was 0.07; that for C17U U104C was 1.33.
Next, C18A U104A: 0.85; C18U A69C: 0.07.
For the variant U20A G53U, the self-cleavage stood at 1.1.
In the case of U20C U26A, the self-cleavage is 0.92.
Turning to U20C U26C, the self-cleavage came to 1.26.
The value for C19U A43U was 1.41; that for U20C C103A was 1.49.
With U20A U134A, the self-cleavage turned out to be 0.92.
In the case of C16A U81A, the self-cleavage came out at 0.75.
For C18U A78G, the self-cleavage was 0.88.
Regarding C18U A78U, the self-cleavage was 0.9.
Next, C17A A43G: 0.89; C18U U100C: 1.53; U20A C95A: 0.09.
As to U20A C95U, the self-cleavage was 0.13.
Regarding C19G A77G, the self-cleavage is 2.07.
Next, C16A U20A: 1.64; U20C G27A: 1.12; U20A U45C: 1.36.
For U20A U132A, the self-cleavage turned out to be 1.61.
Next, C16U U134C: 2.6.
Regarding U20A U108G, the self-cleavage stood at 0.53.
As to U20A G44U, the self-cleavage was 1.2.
As for U20C G93A, the self-cleavage was determined as 0.04.
For U20C C123A, the self-cleavage worked out at 1.34.
The value for U20C C123U was 0.91.
As for C18A C37G, the self-cleavage came out at 0.99.
